Test results taken from patent publication EP1950300A2 (Genentech, Inc., dated 2008).
Numbering of substitutions follows the chain as printed. Names and notes keep the numbering of the source.

T1: VEGF(8-109) (UniProt P15692 214-315)
T1 construct: range 8-109; Covalently coupled to the BIACORE chip
T1 sequence (looked up): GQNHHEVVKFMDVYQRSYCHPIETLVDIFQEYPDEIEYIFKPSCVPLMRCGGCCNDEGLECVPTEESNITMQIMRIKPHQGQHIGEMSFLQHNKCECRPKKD

B1: Y0241-6 (Fab, V domains shown)
VH: EVQLVESGGGLVQPGGSLRLSCAASGYDYTNYGMNWVRQAPGKGLEWVGWINTYTGEPTYAADFKRRFTFSLDTSKSTAYLQMNSLRAEDTAVYYCAKYPHYYGSSHWYFDVWGQGTL
VL: DIQLTQSPSSLSASVGDRVTITCRANEQLSNYLNWYQQKPGKAPKVLIYFTSSLHSGVPSRFSGSGSGTDFTLTISSLQPEDFATYYCQQYSTVPWTFGQGTKVEIKR
notes: Clone from library YC-86 built on pY0192, expressed as Fab
B2: Y0241-7 (Fab, V domains shown)
VH: B1 VH with Y29W
VL: B1 VL
notes: Clone from library YC-86 built on pY0192, expressed as Fab; This is not written as a substitution
B3: Y0239-19 (Fab, V domains shown)
VH: EVQLVESGGGLVQPGGSLRLSCAASGYTFTNYGMNWVRQAPGKGLEWVGWINTYTGEPTYAADFKRRFTFSLDTSKSTAYLQMNSLRAEDTAVYYCAKYPHYYVNERKSHWYFDVWGQGTL
VL: B1 VL
notes: Expressed as Fab; also called insertion variant Y0239-19; VNERK motif variant
B4: Y0239-8 (Fab, V domains shown)
VH: EVQLVESGGGLVQPGGSLRLSCAASGYTFTNYGMNWVRQAPGKGLEWVGWINTYTGEPTYAADFKRRFTFSLDTSKSTAYLQMNSLRAEDTAVYYCAKYPHYYLRDGRSSHWYFDVWGQGTL
VL: B1 VL
notes: Clone from library YC-95 (G104 replaced by a random peptide) on pY0192; Expressed as Fab; The limits of the flanking pieces are my reading
B5: Y0239-9 (Fab, V domains shown)
VH: EVQLVESGGGLVQPGGSLRLSCAASGYTFTNYGMNWVRQAPGKGLEWVGWINTYTGEPTYAADFKRRFTFSLDTSKSTAYLQMNSLRAEDTAVYYCAKYPHYYLGESSHWYFDVWGQGTL
VL: B1 VL
notes: Clone from library YC-95 on pY0192; Expressed as Fab; The limits of the flanking pieces are my reading
B6: Y0261-6 (Fab, V domains shown)
VH: B3 VH with V104L, N105K, E106D, R107K
VL: B1 VL
notes: Clone from library YC-98 on pY0192; Expressed as Fab; The limits of the flanking pieces are my reading
B7: Y0313-2 (Fab, V domains shown)
VH: B3 VH with T28D, N31H
VL: B1 VL
notes: Combines the CDR H3 insertion of Y0239-19 with T28D/N31H; Prepared as Fab; also called CDR combination variant Y0313-2; Insert-Fab Y0313-2
B8: Y0239-2 (Fab, V domains shown)
VH: B3 VH with V104K, E106D, R107K, K108S
VL: B1 VL
notes: as for B5
B9: Y0240-1 (Fab, V domains shown)
VH: B3 VH with V104L, N105T, E106D, R107H
VL: B1 VL
notes: Clone from library YC-98 (G104 and S105 replaced by a random peptide) on pY0192; Expressed as Fab; The limits of the flanking pieces are my reading
B10: Y0242-1 (Fab, V domains shown)
VH: B1 VH with D28T, Y29F, Y54W
VL: B1 VL
notes: Clone from library YC-90; Expressed as Fab
B11: Y0239-12 (Fab, V domains shown)
VH: B3 VH with V104A, N105H, R107K
VL: B1 VL
notes: as for B6

target: T1, VEGF(8-109); test: SPR (BIACORE-2000), Kd calculated as koff/kon

Row | Binder | Kd [nM]
1 | B1 | 2.7
2 | B2 | 3

target: T1, VEGF(8-109); test: SPR (BIACORE-2000), VEGF(8-109) coupled to the chip, Fab injected, 25 C

Row | Binder | koff [s⁻¹] | kon [M⁻¹ s⁻¹]
3 | B1 | 0.000129 | 47000
4 | B2 | 0.000128 | 46000

target: T1, VEGF(8-109); test: SPR (BIACORE-2000), ratio against Y0192

Row | Binder | Kd(wt)/Kd(mut) [fold]
5 | B1 | 1.1
6 | B3 | 9.7
7 | B4 | 5.8
8 | B5 | 6
9 | B6 | 5
10 | B7 | 8
11 | B8 | 0.6
12 | B9 | 5.8
13 | B10 | 1.6
14 | B11 | 4.8
15 | B2 | 1
